Measurements taken from patent US20240084004A1.

T1: canine PD-1 (canine Programmed Death Receptor 1) antigen (canine)
T1 sequence: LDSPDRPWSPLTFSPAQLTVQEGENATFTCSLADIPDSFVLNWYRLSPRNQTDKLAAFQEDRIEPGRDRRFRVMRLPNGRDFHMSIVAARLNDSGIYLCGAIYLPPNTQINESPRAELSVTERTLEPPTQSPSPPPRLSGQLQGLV


Columns and labels:
[1] = target: T1, canine PD-1 (canine Programmed Death Receptor 1) antigen (canine); test: SPR (Biacore T200), canine PD-1 immobilized by amine coupling, antibody as analyte, 1:1 fit; off-rate below detection limit
[2] = target: T1, canine PD-1 (canine Programmed Death Receptor 1) antigen (canine); test: SPR (Biacore T200), canine PD-1 immobilized by amine coupling, antibody as analyte, 1:1 fit

Row | Binder | Kd [1] | koff [1] | kon [2] | Kd [2] | koff [2]
1 | Murine 2H9 (mouse anti-canine PD-1 monoclonal antibody) (antibody, V domains shown) VH: EVQLQQSVAELVRPGASVKLSCTASGFNIKNTYMHWIKQRPEQGLEWIGRIAPANVDTKYAPKFQGKATITADTSSNTAYMQLSTLTSEDTAIYYCVLIYYDYDGDIDVWGTGTTVTVSS VL: DIQMNQSPSSLSASLGDTITITCHASQNINVWLSWYQQRPGNIPKLLIYKASHLHTGVPSRFSGSGSGTGFTLTISSLQPEDIATYYCQQGQSWPLTFGAGTKLELK | < 0.2 nM | < 5e-06 s⁻¹ | 23000 M⁻¹ s⁻¹ | – | –
2 | Murine 3B6 (mouse anti-canine PD-1 monoclonal antibody) (antibody, V domains shown) VH: QIQLVQSGPELKKPGETVKISCKASGYTFTTYGMSWVKQAPGKGLKWMGWINIYSGIPTYADDFKGRFAFSLETSASTAYLQIDNLKNEDTATYFCARFDGPDYWGQGTTLTVSS VL: DIVMTQSPSSLAVSVGRKVTMSCKSSQSLLNSVNQKNYLAWYQQKPGQSPKVLVYFASARVSGVPDRFIGSGSGTDFTLAISSVQAEDLTTYFCQQYFSTPLTFGAGTKLELK | – | – | 18000 M⁻¹ s⁻¹ | 2 nM | 3.4e-05 s⁻¹
